In article PMC11464180 (Immunity, 2024):

Key:
H1 mini-HA (#4900) [1] = target: T1, H1 mini-HA (#4900) (Designed from influenza A virus …, stabilised); test: ELISA
[2] = target: H1N1 A/Solomon Island/3/2006 HA (Influenza A virus A/Solomon …, UniProt A7Y8I1, strain); test: BLI
H1 mini-HA (#4900) [3] = target: T1, H1 mini-HA (#4900); test: BLI

B1: 013–10 3F02 IgG K56N mutant (antibody, V domains shown)
VH: QVQLVESGGGVAQPGRSLRLSCAASGFTFSTYGMHWVRQAPGKGLEWVAVISYDGSNRYYAEILKDRFTISRDNSKNTVYLQMNSLRTEDTAVYFCAKEGRPLIVSGTHFFQFYYGMDVWGQGTTVTVSS
VL: DIQMTQSPSSLSASVGDRVTISCRASQSIGTYLNWYQQKPGKAPNLLIYGTSTLKSGVPSRFSGSGSGTDFTLTIGSLQPEDFATYFCQQSFSPPLTFGRGTRLEIK
B1 was tested, and the “fold weakening of binding affinity against WT” value (H1 mini-HA (#4900) [1]) was 10 fold.

B2: 310–18A5 (antibody, V domains shown)
VH: QVQLMQSGTEVKKPGSSVRVSCKASGSTFNSDAISWVRQAPGQGLEWMGGILGMFRTVNYAQRFQGRVTITADELMSTAYMELSGLRFEDTAVYYCARGDGYKPNFLRYWGQGTLITVSS
VL: TLSLSPGERATLSCRASQSVSSTSLAWYQQKFGQAPRLLIYGASNRATGIPDRFSGSGSGTDFTLTISRLEPEDFAVYYCQQYGNSLTFGGGTKVEIK
Binder B2 has a Kd [2] of 0.2 nM and a Kd (H1 mini-HA (#4900) [3]) of 1 nM.
